Assay results reported in patent US20040018971A1 (published 2004).
Where no end group is shown, it is not given here. [ ]: non-standard residue; d: D form. Abu = CC[C@H](N)C(=O)O

What was measured:
HLA-DRB1*0701 = biological target: T1, HLA-DRB1*0701 (human); assay: competition with 125I-labeled standard peptide, purified HLA-DR, gel filtration
T1 construct: also called DR7

HLA-DRB1*0401 = biological target: T2, HLA-DRB1*0401 (human); assay: as above
T2 construct: also called DR4w4

HLA-DRB1*0101 = biological target: T3, HLA-DRB1*0101 (human); assay: as above
T3 construct: also called DR1

HLA-DR3 (DRB1*0301) = biological target: T4, HLA-DR3 (DRB1*0301) (human); assay: competition with 125I-labelled probe peptide on purified HLA-DR, gel filtration; IC50 of standard peptide / IC50 of test peptide
T4 construct: Purified HLA class II molecule

HLA-A*6802 [1] = biological target: HLA-A*6802 (human); assay: competition with 125I probe peptide for purified HLA
[2] = biological target: T5, HLA-A*0301 (purified HLA class I molecule) (human); assay: inhibition of 125I probe peptide binding to purified HLA; ratio to standard peptide
T5 construct: also called A3

[3] = biological target: HLA-A*3301 (purified HLA class I molecule) (human); assay: as above
[4] = biological target: HLA-A*1101 (purified HLA class I molecule) (human); assay: as above
[5] = biological target: HLA-A*6801 (purified HLA class I molecule) (human); assay: as above
[6] = biological target: HLA-A*3101 (purified HLA class I molecule) (human); assay: as above
[7] = biological target: HLA-DR7 (DRB1*0701), purified HLA class II molecule (human); assay: competition with 125I-labelled probe peptide, purified HLA-DR
[8] = biological target: HLA-DR4w4 (DRB1*0401), purified HLA class II molecule (human); assay: as above
[9] = biological target: HLA-DR1 (DRB1*0101), purified HLA class II molecule (human); assay: as above
[10] = biological target: HLA-DR3 (DRB1*0301), purified HLA class II molecule (human); assay: as above
HLA-DR7 (DRB1*0701) = biological target: T6, HLA-DR7 (DRB1*0701) (human); assay: competition with 125I-labelled probe peptide on purified HLA-DR, gel filtration; IC50 of standard peptide / IC50 of test peptide
T6 construct: Purified HLA class II molecule

HLA-DR1 (DRB1*0101) = HLA-DR1 (DRB1*0101) (human); assay: as above
HLA-DR4w4 (DRB1*0401) = biological target: T7, HLA-DR4w4 (DRB1*0401) (human); assay: as above
T7 construct: Purified HLA class II molecule

HLA-A*0202 = HLA-A*0202 (human); assay: competition with 125I-labelled probe peptide for purified HLA, gel filtration
HLA-A*0201 = biological target: T8, HLA-A*0201 (human); assay: as above
T8 construct: also called HLA-A2.1

HLA-A*6802 [11] = biological target: HLA-A*6802 (human); assay: as above
HLA-A*0203 = HLA-A*0203 (human); assay: as above
HLA-A*0206 = HLA-A*0206 (human); assay: as above

B1: HER2/neu DR supermotif exemplary peptide LLVVVLGVVFGILIK (position 662) (peptide)
peptide: LLVVVLGVVFGILIK
notes: synthetic 15-mer; also called Her2/neu.662
relative binding ratio (HLA-DRB1*0701): 0.0019 ratio (standard IC50 / test IC50)
relative binding ratio (HLA-DRB1*0401): -0.0025 ratio (standard IC50 / test IC50)
relative binding ratio (HLA-DRB1*0101): -0.0008 ratio (standard IC50 / test IC50)

DLTLGLEPSEEEAPR (also called Her2/neu.1058) [HER2/neu peptide DLTLGLEPSEEEAPR (position 1058)]
relative binding ratio (HLA-DR3 (DRB1*0301)): -0.0025 ratio

YMIMVKCWM [Her2/neu.952 (9-mer) YMIMVKCWM]
IC50 (HLA-A*6802 [1]): 1000 nM

B2: HER2/neu DR supermotif exemplary peptide ITDFGLARLLDIDET (position 861) (peptide)
peptide: ITDFGLARLLDIDET
notes: synthetic 15-mer; also called Her2/neu.861
relative binding ratio (HLA-DRB1*0701): -0.0011 ratio (standard IC50 / test IC50)
relative binding ratio (HLA-DRB1*0401): -0.0032 ratio (standard IC50 / test IC50)
relative binding ratio (HLA-DRB1*0101): 0.0048 ratio (standard IC50 / test IC50)

CVARCPSGVK (also called Her2/neu.596 (10-mer)) [HER2/neu peptide, position 596, 10 amino acids]
relative binding ratio [2]: 0.022 ratio (IC50 standard / IC50 test)
relative binding ratio [3]: 0.0064 ratio (IC50 standard / IC50 test)
relative binding ratio [4]: 0.0042 ratio (IC50 standard / IC50 test)
relative binding ratio [5]: 0.0093 ratio (IC50 standard / IC50 test)
relative binding ratio [6]: 0.0008 ratio (IC50 standard / IC50 test)

VVGILLVVVLGVVFG (also called Her2/neu.658) [HER2/neu DR supermotif exemplary 15-mer VVGILLVVVLGVVFG (position 658)]
relative binding ratio [7]: -0.0013 ratio (IC50 standard / IC50 test)
relative binding ratio [8]: -0.0025 ratio (IC50 standard / IC50 test)
relative binding ratio [9]: -0.0004 ratio (IC50 standard / IC50 test)

AIKVLRENTSPKANK (also called Her2/neu.751) [HER2/neu peptide AIKVLRENTSPKANK (position 751)]
relative binding ratio (HLA-DR3 (DRB1*0301)): 0.0075 ratio

FVVIQNEDLGPASPL (also called Her2/neu.986) [HER2/neu peptide FVVIQNEDLGPASPL (position 986)]
relative binding ratio (HLA-DR3 (DRB1*0301)): -0.0025 ratio

VEPLTPSGAMPNQAQ (also called Her2/neu.697) [HER2/neu DR supermotif exemplary 15-mer VEPLTPSGAMPNQAQ (position 697)]
relative binding ratio [7]: -0.0011 ratio (IC50 standard / IC50 test)
relative binding ratio [8]: -0.0025 ratio (IC50 standard / IC50 test)
relative binding ratio [9]: -0.0008 ratio (IC50 standard / IC50 test)

B3: HER2/neu DR supermotif exemplary peptide QGFFCPDPAPGAGGM (position 1028) (peptide)
peptide: QGFFCPDPAPGAGGM
notes: synthetic 15-mer; also called Her2/neu.1028
relative binding ratio (HLA-DRB1*0701): -0.0011 ratio (standard IC50 / test IC50)
relative binding ratio (HLA-DRB1*0401): 0.023 ratio (standard IC50 / test IC50)
relative binding ratio (HLA-DRB1*0101): -0.0005 ratio (standard IC50 / test IC50)

RSLLEDDDMGDLVDA (also called Her2/neu.1006) [HER2/neu DR supermotif exemplary 15-mer RSLLEDDDMGDLVDA (position 1006)]
relative binding ratio [10]: 0.008 ratio (IC50 standard / IC50 test)

B4: HER2/neu DR supermotif exemplary peptide PSTFKGTPTAENPEY (position 1234) (peptide)
peptide: PSTFKGTPTAENPEY
notes: synthetic 15-mer; also called Her2/neu.1234
relative binding ratio (HLA-DRB1*0701): -0.0011 ratio (standard IC50 / test IC50)
relative binding ratio (HLA-DRB1*0401): -0.0032 ratio (standard IC50 / test IC50)
relative binding ratio (HLA-DRB1*0101): -0.0005 ratio (standard IC50 / test IC50)

GTQRCEKCSK (also called Her2/neu.327 (10-mer)) [HER2/neu peptide, position 327, 10 amino acids]
relative binding ratio [2]: 0.021 ratio (IC50 standard / IC50 test)
relative binding ratio [3]: 0.0012 ratio (IC50 standard / IC50 test)
relative binding ratio [4]: 0.61 ratio (IC50 standard / IC50 test)
relative binding ratio [5]: 0.01 ratio (IC50 standard / IC50 test)
relative binding ratio [6]: 0.014 ratio (IC50 standard / IC50 test)

IKVLRENTSPKANKE (also called Her2/neu.752) [HER2/neu peptide IKVLRENTSPKANKE (position 752)]
relative binding ratio (HLA-DR7 (DRB1*0701)): -0.0011 ratio
relative binding ratio (HLA-DR1 (DRB1*0101)): -0.0005 ratio
relative binding ratio (HLA-DR4w4 (DRB1*0401)): -0.0032 ratio

KTFGSLAFV [Her2/neu.369T2V9]
IC50 (HLA-A*0202): 13 nM
IC50 (HLA-A*0201): 35 nM
IC50 (HLA-A*6802 [11]): 17 nM
IC50 (HLA-A*0203): 1010 nM

YLIMVK[Abu]WMV (also called YLIMVKBWMV) [Her2/neu.952L2B7V10]
IC50 (HLA-A*0202): 66 nM
IC50 (HLA-A*0201): 7.2 nM
IC50 (HLA-A*0206): 11 nM
IC50 (HLA-A*6802 [11]): 851 nM
IC50 (HLA-A*0203): 77 nM

GTDMKLRLPASPETH (also called Her2/neu.28) [HER2/neu peptide GTDMKLRLPASPETH (position 28)]
relative binding ratio (HLA-DR7 (DRB1*0701)): -0.0013 ratio
relative binding ratio (HLA-DR1 (DRB1*0101)): 0.001 ratio
relative binding ratio (HLA-DR4w4 (DRB1*0401)): -0.0025 ratio

YLIMVKCWMV [Her2/neu.952L2V10]
IC50 (HLA-A*0202): 56 nM
IC50 (HLA-A*0201): 13 nM
IC50 (HLA-A*0206): 18 nM
IC50 (HLA-A*6802 [11]): 84 nM
